# Test results from patent US20180245075.
# Tests used:
# [1] = target: T1, DpnI binding domain-VP64 (synR-VP64) (Streptococcus pneumoniae) (UniProt P0A459); assay: cell_activity; settings: N6-methyladenine at A of GATC; integrated interspersed reporter with synI; >100-fold episomal with ZF-Dam(WT)
# T1 sequence: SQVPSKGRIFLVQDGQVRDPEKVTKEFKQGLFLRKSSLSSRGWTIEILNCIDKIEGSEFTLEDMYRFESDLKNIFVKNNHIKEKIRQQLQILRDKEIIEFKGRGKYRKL
# [2] = target: T2, DpnI binding domain-Dam(R95A) (synRW) (Streptococcus pneumoniae / Escherichia coli) (UniProt P0AEE8); assay: cell_activity; settings: N6-methyladenine at A of GATC; with inducible writer and DpnI-VP64; mCherry-Dam(R95A) gave no increase
# T2 sequence: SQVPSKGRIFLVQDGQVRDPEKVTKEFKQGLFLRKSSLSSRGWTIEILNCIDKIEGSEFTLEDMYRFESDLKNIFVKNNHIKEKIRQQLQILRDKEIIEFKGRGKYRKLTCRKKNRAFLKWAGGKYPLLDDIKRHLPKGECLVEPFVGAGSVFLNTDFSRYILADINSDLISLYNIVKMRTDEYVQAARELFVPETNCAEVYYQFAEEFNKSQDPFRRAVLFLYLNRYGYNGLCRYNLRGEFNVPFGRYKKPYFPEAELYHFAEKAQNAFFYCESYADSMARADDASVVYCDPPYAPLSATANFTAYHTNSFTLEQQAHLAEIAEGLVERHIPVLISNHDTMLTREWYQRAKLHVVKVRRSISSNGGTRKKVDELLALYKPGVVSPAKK
sequence,measurement,setting,value
GATC (double strand) [adenine-methylated GATC sites of reporter],activity (fold GFP activation),[1],30
same,activity (fold increase in GFP activation),[2],2
